Measurements taken from PMC10039049.

Target: extracellular leucine-rich repeat (LRR) domain of OsER1 (OsER1^LRR) (rice (Oryza sativa)) (UniProt Q69SP5)
Assay: ITC; about 0.3 mM OsEPFL peptide injected (24 x 1.5 uL) into 0.03 mM OsER1^LRR in the cell; ITC200, 25 °C, 10 mM Bis-Tris pH 6.0, 100 mM NaCl

Sequence of UniProt Q69SP5 (Q69SP5 25-577): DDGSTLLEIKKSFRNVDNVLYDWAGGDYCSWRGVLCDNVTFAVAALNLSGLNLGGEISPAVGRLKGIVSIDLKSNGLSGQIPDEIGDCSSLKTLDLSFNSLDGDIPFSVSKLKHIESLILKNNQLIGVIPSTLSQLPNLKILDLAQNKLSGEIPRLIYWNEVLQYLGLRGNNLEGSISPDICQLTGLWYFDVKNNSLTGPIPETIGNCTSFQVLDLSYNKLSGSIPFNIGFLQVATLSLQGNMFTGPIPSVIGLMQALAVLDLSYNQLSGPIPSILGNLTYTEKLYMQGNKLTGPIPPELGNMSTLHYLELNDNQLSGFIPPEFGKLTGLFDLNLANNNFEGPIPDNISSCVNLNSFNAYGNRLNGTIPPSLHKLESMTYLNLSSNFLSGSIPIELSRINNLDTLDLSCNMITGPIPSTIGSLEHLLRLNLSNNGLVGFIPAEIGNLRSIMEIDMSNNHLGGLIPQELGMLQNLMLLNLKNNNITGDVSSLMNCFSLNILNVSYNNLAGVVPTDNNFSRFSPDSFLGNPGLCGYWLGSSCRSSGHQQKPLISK

Substance | Kd [µM]
predicted mature small peptide OsEPFL7 | 1.02
predicted mature small peptide OsEPFL8 | 18.7
predicted mature small peptide OsEPFL6 | 1.35
predicted mature small peptide OsEPFL9 | 56.8
